In patent US20260308269 (published 2026) one finds Kd data, which are given here for 18 molecules.

Test in all cases: SPR
For orientation: SPR reads the build-up and loss of mass on a sensor chip optically.

Experiment [1] addresses T1, human TfR apical domain (human).
T1 chain: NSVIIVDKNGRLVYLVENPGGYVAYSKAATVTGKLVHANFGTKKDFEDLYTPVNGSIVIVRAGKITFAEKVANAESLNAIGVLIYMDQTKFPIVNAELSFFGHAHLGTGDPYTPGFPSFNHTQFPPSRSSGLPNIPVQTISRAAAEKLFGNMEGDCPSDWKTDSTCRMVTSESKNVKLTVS

Experiment [2] deals with T1, human TfR apical domain.
Experiment [3] addresses T1, human TfR apical domain.
For experiment [4], the target named is T2, human CD98hc (human).
T2 chain: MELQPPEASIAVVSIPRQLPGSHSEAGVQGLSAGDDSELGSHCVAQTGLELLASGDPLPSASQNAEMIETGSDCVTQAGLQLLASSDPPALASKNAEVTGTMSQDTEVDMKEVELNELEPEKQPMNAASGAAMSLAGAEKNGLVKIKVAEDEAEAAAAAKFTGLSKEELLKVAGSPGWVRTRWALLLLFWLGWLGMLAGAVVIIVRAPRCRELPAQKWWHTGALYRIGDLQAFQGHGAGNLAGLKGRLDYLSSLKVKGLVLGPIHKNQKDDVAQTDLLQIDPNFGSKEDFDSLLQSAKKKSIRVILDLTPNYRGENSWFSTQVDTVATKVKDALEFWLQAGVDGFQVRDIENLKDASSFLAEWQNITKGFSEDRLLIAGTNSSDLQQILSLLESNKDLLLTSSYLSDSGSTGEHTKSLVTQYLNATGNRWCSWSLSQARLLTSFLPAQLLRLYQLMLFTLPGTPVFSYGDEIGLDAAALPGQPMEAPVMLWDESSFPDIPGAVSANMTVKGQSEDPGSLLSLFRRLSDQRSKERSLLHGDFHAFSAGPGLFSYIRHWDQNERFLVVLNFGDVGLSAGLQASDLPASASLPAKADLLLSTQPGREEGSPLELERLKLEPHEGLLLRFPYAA

Substitutions are numbered along the chain they refer to. Read-outs that look alike come from different tables or passages of the source.

B1: CH3C.35.23.2 (protein)
chain: PCPAPELLGGPSVFLFPPKPKDTLMISRTPEVTCVVVDVSHEDPEVKFNWYVDGVEVHNAKTKPREEQYNSTYRVVSVLTVLHQDWLNGKEYKCKVSNKALPAPIEKTISKAKGQPREPQVYTLPPSRDELTKNQVSLWCLVKGFYPSDIAVEWESYGTEWANYKTTPPVLDSDGSFFLYSKLTVTKEEWQQGFVFSCSVMHEALHNHYTQKSLSLSPGK
In the case of B1, binding in experiment [1] was put at a Kd of 100 nM.

B2: CH3C.35.23.4 (protein)
chain: B1 chain with A162S, T186S
In the case of B2, the Kd (in general, a measure of binding affinity in units of concentration) in experiment [1] came to 620 nM.

B3: TV35.d1.9 (protein)
chain: B1 chain with L7A, L8A, P102G, A162T, E188S
With B3, the figures for the Kd in experiment [2] and in experiment [1] were 8400 nM and 8000 nM, respectively.

B4: TV35.d1.10 (protein)
chain: B1 chain with L7A, L8A, P102G, A162V, E188S
As to B4, the Kd in experiment [2] and in experiment [1] was 2500 nM throughout.

B5: 42.2.3-1H (protein)
chain: APELLGGPSVFLFPPKPKDTLMISRTPEVTCVVVDVSHEDPEVKFNWYVDGVEVHNAKTKPREEQYNSTYRVVSVLTVLHQDWLNGKEYKCKVSNKALPAPIEKTISKAKGQPREPQVYTLPPSRDELTKNQVSLTCLVKGFYPSDIAVEWFYGNAKETNYKTTPPVLDSDGSFFLYSKLTVDKSRWQQGNLFACEVMHEALHNHYTYKLLSLSPGK
In turn, B5 came in with a Kd in experiment [3] of 220 nM.

B6: 42.8.143 (protein)
chain: B5 chain with N155D, A156S, E158L
Regarding B6, binding in experiment [1] was put at a Kd of 450 nM.

B7: 42.2.19 (protein)
chain: B5 chain with G154D, N155D, A156S, E158L, Q189P, G190R, N191G, S212G, L213E
B7 showed a Kd in experiment [3] of 80 nM.

B8: 6.5.11.5.42.1 (protein)
chain: B5 chain with Y153S, N155G
In turn, B8 displayed a Kd in experiment [3] of 840 nM.

B9: 42.8.15 (protein)
chain: B5 chain with Y153S, N155A, A156Q, T159S
Molecule B9 came in with a Kd in experiment [3] of 5960 nM.

B10: 42.8.196 (protein)
chain: B5 chain with G154E, N155A, A156Q, E158L, T159N
In experiment [3], B10 displayed a Kd of 924 nM.

B11: 42.8.80 (protein)
chain: B5 chain with Y153S, G154E, N155G, A156S
In the case of B11, the Kd in experiment [3] came out at 2380 nM.

B12: 6.5.11.5.42.2 (TV42.2) (protein)
chain: B5 chain with Y153S, G154D, N155G, A156S
For B12, the Kd in experiment [3] and in experiment [1] was 650 nM each time.

B13: 42.8.17 (protein)
chain: B5 chain with Y153S, N155A, A156Q, E158L
Consider B13, for which, in experiment [3], binding was put at a Kd of 10400 nM.

B14: LLB2-10-8.d28 (protein)
chain: APELLGGPSVFLFPPKPKDTLMISRTPEVTCVVVDVSHEDPEVKFNWYVDGVEVHNAKTKPREEQYNSTYRVVSVLTVLHQDWLNGKEYKCKVSNKALPAPIEKTISKAKGQPREPQVYTLPPSRDELTKNQVSLTCLVKGFYPSDIAVLWSSRYVLENNYKTTPPVLDSDGSFFLYSKLTVDKSRWQQGNVFACNVYHEALHNHYTFKNLALSPGK
Take B14: binding in experiment [4] was characterised by a dissociation constant (Kd) of 4200 nM.

B15: LLB2.10.8.14.3 (protein)
chain: B14 chain with S152N, Y155F, N191E, V192I, Y206R, A212R
As for B15, the Kd in experiment [4] was found to be 20 nM.

B16: LLB2-10-8-d12 (protein)
chain: B14 chain with S152N, R154H, V156E
In turn, B16 displayed a Kd in experiment [4] of 2100 nM.

B17: LLB2-37 (protein)
chain: B14 chain with S152N, R154Q, Y155F, V156H, V192I, A212L
Turning to B17, the Kd in experiment [4] amounted to 610 nM.

B18: LLB2-10-8 (protein)
chain: B14 chain with S152N, Y155F, N191E, V192I
In the case of B18, in experiment [4], binding was put at a Kd of 170 nM.
